Data: paper doi:10.1101/2023.12.13.571598

Target: P301S tauRD-mEOS3.2 (human)
Assay: FRET or BRET

For “P301S tauRD-mEOS3.2 (domain or fragment)”, the percent FRET-positive cells (100 nM recombinant tau fibrils) was 74%.
